Measurements taken from PMC3731059.

How the values were obtained:
Experiment in all cases: FXa generation assay
[1] = biological target: FVIIIa Ala1866Cys/Ser2119Cys (thrombin-activated B domainless factor VIII variant) (UniProt P00451)
[2] = biological target: FVIIIa Arg2116Ala (thrombin-activated B domainless factor VIII variant) (UniProt P00451)
[3] = biological target: FVIIIa Arg2116Val (thrombin-activated B domainless factor VIII variant) (UniProt P00451)
[4] = biological target: FVIIIa Gly1750Cys/Arg2116Cys (thrombin-activated B domainless factor VIII variant) (UniProt P00451)
[5] = biological target: FVIIIa Ser2029Cys/Pro2292Cys (thrombin-activated B domainless factor VIII variant) (UniProt P00451)
[6] = biological target: WT FVIIIa (thrombin-activated B domainless factor VIII) (UniProt P00451)

Kd [1]: 400 pM | Kd [2]: 450 pM | Kd [3]: 400 pM | Kd [4]: 440 pM | Kd [5]: 330 pM | Kd [6]: 430 pM
Substance: factor IXaβ (enzyme)
